# According to the supplement of paper PMC12042874:
# ± gives the uncertainty stated by the source.
# Assay: amyloid nucleation score (Sup35N fusion, yeast selection) (log enrichment); library NNK1; higher = more nucleation; inactive = no reads after selection
# How it was run: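 Three technical output replicates were used for random libraries. Psi-negative yeast expressing peptides of 20 random codons fused to Sup35N were induced with 100 μM copper sulfate for 24 hours and grown 7 days at 30°C on medium lacking adenine and uracil, and input and output plasmid inserts were Illumina-sequenced, excluding sequences with under 100 input reads. The nucleation score is the DiMSum log enrichment of output over input reads, centred on the mode score of non-aggregating sequences.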
row,Substance,amyloid nucleation score
1,SAGYYPVVLCALILEAEYQD,-0.541 ± 0.61
2,WFAVWRIRCVRSDVANWMLS,0.283 ± 0.37
3,RIAFFS,1.25 ± 0.57
4,HRPYLCGISYGGSRCELYTA,0.839 ± 0.75
5,CIVVMGSVAYHGRFYFVDVE,1.43 ± 0.76
6,YVTIIDKIYIWLDVVNRDLP,2.55 ± 0.29
7,SMQSSVDYKRGAMTFI,0.424 ± 0.69
8,QRSCNAVTFVGCQYNFFPTE,7.091 ± 0.05
9,EPFGLGFRRNDLSYANRVGS,-0.887 ± 1.3
10,LMQSCWSFHYNRLASLLRHT,-0.316 ± 0.88
11,RIVEGWDTLSFLFRKGCEFF,1.2 ± 0.56
12,GEERFYSLKYCCKGRLWRPG,0.179 ± 0.43
13,LMLRLRVLPVA,-0.234 ± 0.26
14,WHKLRPFEGAIKMFSAWISL,inactive
15,EFWWIDICSGCYLFF,6.5 ± 0.074
16,VLIFAKFYELPGDRRFGTGW,3.87 ± 0.11
17,TASFY,-0.41 ± 1.6
18,DRSRVLSSGETGYDIEVGQS,-0.033 ± 0.45
19,HFASRLMRKEFAVRFLRGFS,-0.608 ± 1.2
20,VNVCYTMMEFVAGVYSGLLR,0.288 ± 0.29
21,HSDFQDFMTDFGHDAFFKDW,0.096 ± 0.4
22,NTCYALIMVLYRRDRGPANM,1.55 ± 0.17
23,LRSCMRGGRKYRDS,-0.903 ± 0.58
24,VYRIWSSSGNYKEVYAHRAL,0.947 ± 0.93
25,GFALECESEVWSCYYTIRII,0.444 ± 0.43

row,Substance,amyloid nucleation score
1,VGTLSRLSFYVVDAVSAQRG,0.756 ± 0.81
2,VSPLWSCFTSGVPTDCWSLG,0.275 ± 1.2
3,SVGYH,0.699 ± 0.59
4,MIRQFSVSICSTRSVCVHPR,-0.135 ± 0.59
5,QHLRFSFVPE,0.312 ± 0.46
6,WHILPQVWGIVHMIRSNLVC,0.99 ± 0.64
7,GFTTMEDCGPREGPTIVDDK,-0.149 ± 1.3
8,ACSPGTVVKDITDTSK,0.45 ± 0.63
9,LLSQVTCGMQTVRRNGGIIR,-0.195 ± 0.65
10,TGLSSYM,-0.701 ± 0.97
11,FCPTVETYNVW,2.12 ± 0.14
12,IFAPAIMSFYSLVIQWPYPG,1.99 ± 0.45
13,TCFTLGRPNSLFCDCIGHKS,-0.011 ± 0.29
14,CFEDRYSLRCGM,-0.397 ± 0.34
15,WGRRLSR,0.122 ± 0.5
16,VDLLFDTNCNSF,inactive
17,LARDRFTYLAASYPFTPSRA,-0.761 ± 1.7
18,FRSVGVYAISNLYGHSRYFS,-0.533 ± 0.42
19,TVLNDYWFSTHKLSIR,0.958 ± 0.48
20,LISLLGSISMGPCIVRVYN,-0.259 ± 0.48
21,CCQRYCCTSGLANNWNRVYH,0.812 ± 0.75
22,QLLSISRILLMNRELRRR,-0.623 ± 1
23,KGDNVEIMQTFDKSCLDIGA,inactive
24,SHSGFTCTCWCMALLYGVAS,1.22 ± 0.63
25,MCDVERCRS,inactive

row,Substance,amyloid nucleation score
1,ITVLSS,1.47 ± 0.46
2,QRSLLDDRYNAICSSNTNVE,0.184 ± 0.35
3,DDFAMLE,inactive
4,LPHYNMLSPRIIRTLVVERF,0.694 ± 1.1
5,FYVPDWYNCSCIIWGRDACA,4.19 ± 0.056
6,NVSVVSSHMLICMGMATRNP,1.92 ± 0.36
7,TCNNRSSSCR,1.1 ± 0.61
8,ALLIAY,-0.992 ± 0.59
9,SCSELGMLERLDMGLTLEVL,-0.105 ± 0.36
10,KNPLVIKKRF,0.204 ± 0.59
11,PGYYLEYFLYVNLSWAKTWG,0.018 ± 0.27
12,LNNYCCYIAKYVYWW,6.089 ± 0.044
13,LAFTCFH,0.568 ± 0.28
14,IISKGSWSKSTDFGGLM,-1.83 ± 1.7
15,CFLMNLVAYFVFLRTLS,1.49 ± 0.56
16,SAPFMNGLCTLSRVREISAH,0.222 ± 0.59
17,NNCANIGRIEFMPGHYDMCV,1.11 ± 0.36
18,MMYDGIVSR,-0.184 ± 0.31
19,WNMLPSIPGDRGWLDGVPVV,-0.45 ± 0.39
20,FRQPGYMCEIRVVGFGPKPL,-0.274 ± 0.9
21,WSVDIGLRGLIMRMKYCEFR,-1.01 ± 0.54
22,YSCFSECYTKMSHTLSKNNL,2.11 ± 0.32
23,FASASLLFSKPESG,-1.41 ± 2.4
24,CCFSSMNFIS,4.04 ± 0.082
25,AHYRRVSVAQTHWMADPFGR,0.976 ± 0.36

row,Substance,amyloid nucleation score
1,EVGHFRSDVDLFWV,-1.04 ± 0.44
2,FASWFFMCRDGGLIM,-0.573 ± 0.66
3,AKSWCVSIKLVSDNSYLWET,1.12 ± 0.14
4,KIGLPGLCVW,0.063 ± 0.54
5,REVWRLFILSRVVGYKVIL,0.142 ± 0.22
6,YSQCSRVNFWISAYCVNYIN,7.03 ± 0.071
7,ILMFWSPVGSRLTLSTSKLQ,-0.234 ± 1.6
8,NSMSNF,-1.08 ± 2.4
9,FFVKMHIFSFFQVATVVYMH,0.043 ± 0.33
10,SSAFSLRLFDLSLNYFEFDE,-0.595 ± 0.68
11,HSCRMYYSQRIYIPSNDGSD,1.68 ± 0.29
12,IRTCLVSIVATRCKVGVESP,0.403 ± 0.34
13,LHRRNSCSIYRLLGFCLLPI,1.25 ± 0.6
14,GGWGRGECPYSHTKWYVKSG,-0.999 ± 0.94
15,WRTARFSGKF,-0.048 ± 0.4
16,WLIVIGMGRLGIVIMLGGLK,0.723 ± 0.44
17,LISHPFDPLIKVGDIQMYSF,0.012 ± 0.61
18,GVYARQIFYNS,0.021 ± 0.24
19,LKLYINIIVVNYNLLSICSH,-0.504 ± 0.24
20,LYYNFKF,0.321 ± 0.33
21,LKNSRYSKLFIESMTWWLVY,0.087 ± 0.16
22,GFRLMLFVRTM,1.04 ± 0.45
23,KGFLRFG,0.333 ± 0.38
24,KEGRPQSTLCNVVRGFREQY,-0.565 ± 0.7
25,RGFWLERCSWTF,-0.003 ± 0.37

row,Substance,amyloid nucleation score
1,LLVKNHMRSQEWPLKNSLTN,-1.24 ± 2.4
2,GTYLAFYSLSLCRYTKCLER,-0.22 ± 0.47
3,LRRLSMA,inactive
4,LVVFISRVFTNDITFRFANI,0.675 ± 0.78
5,RSFTVCEFMFLFRLWDNSAY,0.11 ± 0.9
6,GLWMWEEVILISTLKLFVLV,0.139 ± 0.6
7,EMRNLNLYVLAEPNGVGNSA,inactive
8,ILAIKWTSVWCMESDFPIEV,-0.402 ± 0.58
9,GSATRTPVITQRICLPVGCR,-0.691 ± 0.56
10,VYAILKDFFYFFGVNFFCCF,4.18 ± 0.06
11,YASTSNILLSIS,0.546 ± 0.2
12,AIIDDHSVCYNVLKRFSNFG,1.5 ± 0.66
13,GPCNTRSCV,-0.037 ± 0.43
14,YYWSYLALYSG,-0.57 ± 1.2
15,MFVSLSSFSYLGKTLLVFFV,inactive
16,DPFAHYISVYRDSHSVYLSS,inactive
17,CPASKFDQGP,-0.038 ± 0.81
18,SKLMRVVCVVISVAYTWNEE,0.188 ± 0.32
19,DVSRQFYFDYYNIKGLNITK,0.536 ± 0.79
20,LAFDYLLKFLDCR,-0.47 ± 0.53
21,DMDTQEFLYCSSVKFGSTKD,5.408 ± 0.047
22,CCGCWYIITKPYSNKVRKCA,0.265 ± 0.73
23,VNNRRRVSVHDLRDATPGTF,0.099 ± 0.53
24,SLLSAMDLPPFLSYRLSPRW,0.059 ± 1.2
25,DGTNAYV,-0.986 ± 0.56

row,Substance,amyloid nucleation score
1,FIAQLYVNEMFDSLTLRRGD,0.415 ± 0.33
2,LANIYSSNVDISFFDPYCST,4.35 ± 0.085
3,TLPTKTTPSAFAVNEVTFLT,-0.573 ± 0.4
4,FTLSKTILDRSFLWIQGLWS,-0.354 ± 0.81
5,ASAVIWGERAKLRKYLIPTR,0.94 ± 0.7
6,CVFYGFWYFGW,0.145 ± 0.34
7,YVIFCTPSFFIL,5.52 ± 0.068
8,WLNHKRIVINTQLMLYSPGC,4.68 ± 0.11
9,PDVVSTSLILGGLNSPELEH,0.016 ± 0.6
10,NCHREFIHWVILNSGSSAHM,1.94 ± 0.57
11,NFKTSKWYESGRASRSS,-0.076 ± 0.41
12,KAPNRE,-0.063 ± 0.66
13,FVMLGWFSRNIGLYEVFVFT,0.502 ± 0.36
14,PCLVSCHPGADAYLYDNLEV,-0.856 ± 2.4
15,MSYSMVNGDSTF,2.33 ± 0.35
16,EMGSSLYTRHGNVRSLAFGW,0.242 ± 0.48
17,LAMLSNGSFNGLFLLWSRCH,0.525 ± 0.35
18,IVRIESVEFSDYADFAFEVR,0.67 ± 0.59
19,YSIPNDLNPSCKSHLMPRGH,1.23 ± 0.41
20,SRYYNILWNKVCRVRDNH,inactive
21,SEIPKSYPNFDYVSFINNSL,-0.24 ± 0.39
22,EWACFRGAYPAYSDLFR,-0.327 ± 0.67
23,VSTYRRDIMLHVITIENKLT,2.29 ± 0.6
24,LWFLIFSSKADAKVDRRILL,0.041 ± 0.47
25,RLCPSCLVKWMTLWFVWIVR,0.769 ± 0.41

row,Substance,amyloid nucleation score
1,NLLLYVYKKLCFGFVKECII,-0.953 ± 0.57
2,LWPTGSRLSDG,-0.354 ± 0.51
3,FVGEN,0.281 ± 0.52
4,GALSNSSMWFGMYVNPLGTY,inactive
5,SSSFGHYDTWLYSSLFQGLT,3.46 ± 0.14
6,VRLMSTAMLRRLELVLYST,0.539 ± 0.32
7,VCYRGECVDSDLLYLSCP,-0.389 ± 1
8,VMYEVVHVNDDRCEAWLLSR,-0.018 ± 1.5
9,CVFVRVF,inactive
10,FRRMVTVNEAWHHRKAGSAN,1.47 ± 0.65
11,SGQPMIPGTCDNWNWRDYFT,6.04 ± 0.09
12,CPSEYQIAGMIASSYMHLGE,0.872 ± 0.33
13,IIWRDNNTPYD,1.96 ± 0.7
14,SRRKQIVGKVSVFFEASRFV,-1.06 ± 1.2
15,FKSILRYPADRKMS,0.997 ± 0.76
16,WVTHRL,-0.715 ± 1.2
17,NNAGYRYALRKISSHLLRPV,-0.092 ± 0.44
18,YDNIWYKVNRAYEIRWLVGG,-0.383 ± 1.7
19,VSRMGVGTIRTQVHGIRGGT,-0.522 ± 1.6
20,IYNLDWSF,-0.99 ± 1.3
21,QQVSVLILPALTKGRKVV,-0.991 ± 0.69
